From US5792629A, “Isolated DNA encoding novel protease inhibitory polypeptide” (Mochida Pharmaceutical Co., Ltd., priority 1990, dated 1998)

B1: TN70: polypeptide defined by the amino acid sequence of formula 3, purified from culture supernatant of E. coli JE5505 (pM552) (protein)
chain: TVAACNLPIVRGPCRAFIQLWAFDAVKGKCVLFPYGGCQGNGNKFYSEKECREYCGVPGDGDEELLRFSN
B2: TL66: polypeptide defined by formula 8; known enzyme-digested fragment of urinary trypsin inhibitor, made in E. coli JE5505 (pM551) (protein)
chain: TVAACNLPIVRGPCRAFIQLWAFDAVKGKCVLFPYGGCQGNGNKFYSEKECREYCGVPGDGDEELL
B3: UTI: urinary trypsin inhibitor purified from human urine (Mochida Pharmaceutical), used as positive control (protein)
chain: AVLPQEEEGSGGGQLVTEVTKKEDSCQLGYSAGPCMGMTSRYFYNGTSMACETFQYGGCMGNGNNFVTEKECLQTCRTVAACNLPIVRGPCRAFIQLWAFDAVKGKCVLFPYGGCQGNGNKFYSEKECREYCGVPGDGDEELLRFSN
modifications: glycoprotein (sugar moieties, as the filing says in general of UTI)

Assays:
[1] = molecular target: T1, Human plasma plasmin (Homo sapiens, UniProt P00747); assay: Plasmin-inhibiting activity, substrate S-2251; type: biochemical; conditions: purified sample, various concentrations; remaining activity vs buffer control (FIG. 16A-C)
T1 construct: Human plasma plasmin (Sigma Chemical Co.) was dissolved in physiological saline; purchased Sigma Chemical Co; host or cells: human plasma
T1 sequence (P00747 97-810): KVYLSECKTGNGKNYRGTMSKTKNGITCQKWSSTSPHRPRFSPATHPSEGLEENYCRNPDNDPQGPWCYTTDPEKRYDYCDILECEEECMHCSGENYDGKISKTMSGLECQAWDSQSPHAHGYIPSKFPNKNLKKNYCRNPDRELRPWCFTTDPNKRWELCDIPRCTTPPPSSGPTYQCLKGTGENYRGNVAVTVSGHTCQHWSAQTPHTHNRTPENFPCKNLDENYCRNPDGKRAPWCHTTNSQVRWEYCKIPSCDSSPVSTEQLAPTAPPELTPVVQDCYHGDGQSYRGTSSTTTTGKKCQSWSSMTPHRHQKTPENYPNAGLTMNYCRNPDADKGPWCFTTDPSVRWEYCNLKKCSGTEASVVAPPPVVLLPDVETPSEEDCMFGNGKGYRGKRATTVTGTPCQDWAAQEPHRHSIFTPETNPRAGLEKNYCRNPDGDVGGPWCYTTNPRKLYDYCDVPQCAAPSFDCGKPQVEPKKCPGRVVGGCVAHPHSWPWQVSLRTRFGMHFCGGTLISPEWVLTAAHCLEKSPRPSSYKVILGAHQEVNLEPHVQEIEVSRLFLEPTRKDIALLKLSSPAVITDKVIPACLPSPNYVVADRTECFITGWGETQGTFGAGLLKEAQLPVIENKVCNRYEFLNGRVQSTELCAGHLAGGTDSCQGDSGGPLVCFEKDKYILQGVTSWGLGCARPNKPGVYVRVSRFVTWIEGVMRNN
Procedure: The purified sample obtained in Example 1-(5) was dissolved in 100 μl of distilled water. Concentration of this solution was determined based on its bovine trypsin-inhibiting activity using the aforementioned UTI as a standard. The solution was then diluted to various concentration levels with 0.11M NaCl/50 mM Tris-HCl buffer (pH 7.4) for use in the activity measurement. The UTI was also diluted in the same manner. Using a synthetic compound S-2251 (Daiichi Pure Chemicals Co., Ltd.) as a substrate, human plasmin-inhibiting activities of the diluted test samples and the positive control were measured in accordance with the method of Friberger et al. (Friberger,P. et al., Haemostasis, vol.7, pp.138-145, 1978).
Human plasma plasmin (Sigma Chemical Co.) was dissolved in physiological saline to a concentration of 1 U/ml and the solution was further diluted with 50% glycerol/2 mM HCl solution to prepare 0.1 U/ml of plasmin solution. 3.5 mM solution of S-2251 was prepared by dissolving it in distilled water.
Next, 50 μl of the test sample or positive control was mixed with 50 μl of the plasmin solution and 100 μl of 0.11M NaCl/50 mM Tris-HCl buffer (pH 7.4). After incubation at 37° C. for 10 minutes, 50 μl of the S-2251 solution was added to the mixture to start the reaction. The reaction was carried out at 37° C. for 2 minutes and then stopped by adding 25 μl of 50% acetic acid solution to the reaction mixture. Thereafter, absorbance at 405 nm was measured using a spectrophotometer.
In this instance, in order to eliminate absorbance of various solutions in the reaction mixture, a blank solution was prepared by mixing 50 μl of the plasmin solution with 25 μl of 50% acetic acid and then with 50 μl of each test sample or the positive control, 100 μl of 0.11M NaCl/50 mM Tris-HCl buffer (pH 7.4) and with 50 μl of the S-2251 solution.
In this figure, human plasmin remaining activity was expressed by percentage based on the absorbance of a control reaction mixture in which 50 μl of 0.11M NaCl/50 mM Tris-HCl buffer (pH 7.4) was used instead of the test sample or the positive control.

[2] = system: ORTHO Plasma Coagulation Control Level 1; assay: Measurement of activated partial thromboplastin time (aPTT); conditions: for effect on aPTT, anticoagulant activity: conclusion from Table 1; for aPTT (%): aPTT of distilled water control taken as 100%
Procedure: The COAGTEC (TE-600, ERMA OPTICAL WORKS LTD), a measurement instrument, was used and the following operation was conducted at 37° C. to measure the effect of polypeptide of the present invention on activated partial thromboplastin time (hereinafter abbreviated as aPTT).
First, purified samples obtained in Example 1 (5), Example 2 (5) and Example 3 (4) were dissolved in 100 μl of distilled water. Concentration of each solution was determined based on bovine trypsin-inhibiting activity using UTI as a standard. Each solution was then diluted to various concentration levels for activity measurement.
Afterward, 50 μl of the ORTHO Plasma Coagulation Control Level 1 (Ortho Diagnostic Systems Co., Ltd.) was put into glass tubes. 50 μl of the sample or 50 μl of distilled water as control was added. Furthermore, 100 μl of the Activated THROMBOFAX Reagent-Optimized (Ortho Diagnostic Systems Co., Ltd.) was added and then each glass tube was set in the apparatus. 100 μl of 0.02M CaCl2 was then added to each glass tube for the measurement, and aPTT for each test samples and the control was obtained.
The aPTT values of the samples are described in percentage when taking the aPTT value of control as 100%.

[3] = molecular target: T2, Human trypsin (Homo sapiens, UniProt P07477); assay: Human trypsin-inhibiting activity, substrate S-2444; type: biochemical; conditions: purified sample, various concentrations; remaining activity vs buffer control (FIG. 14A-C)
T2 construct: purchased Calbiochem
Procedure: The purified sample obtained in Example 1-(5) was dissolved in 100 μl of distilled water. Concentration of this solution was determined based on its bovine trypsin-inhibiting activity using the aforementioned UTI as a standard. The solution was then diluted to various concentration levels with 0.1% BSA/0.2M triethanolamine-HCl buffer (pH 7.8) for the activity measurement. The aforementioned UTI was also diluted in the same manner.
Using the aforementioned synthetic compound S-2444 as a substrate, human trypsin-inhibiting activities of the diluted test samples and the positive control were measured in accordance with the method of Kassell (Kassell B., Methods in Enzymol., vol 19, pp.84-852, 1970) as follows.
Human trypsin (Calbiochem) was dissolved in 0.001M HCl to a concentration of 1,000 SU/ml and the solution was further diluted with 0.1% BSA/0.2M triethanolamine-HCl buffer (pH 7.8) to prepare 1.25 SU/ml of trypsin solution. 2 mM solution of S-2444 was prepared by dissolving it in distilled water.
Next, 100 μl of the test sample or positive control was mixed with 100 μl of the trypsin solution. After incubation at 37° C. for 10 minutes, 50 μl of the S-2444 solution was added to the mixture to start the reaction. The reaction was carried out at 37° C. for 20 minutes and then stopped by adding 50 μl of 50% acetic acid solution to the reaction mixture. Thereafter, absorbance at 405 nm was measured using a spectrophotometer.
In this instance, in order to eliminate absorbance of various solutions in the reaction mixture, a blank solution was prepared by mixing 100 μl of the trypsin solution with 50 μl of 50% acetic acid and then with 100 μl of each test sample or the positive control and with 50 μl of the S-2444 solution.
In this figure, human trypsin remaining activity was expressed by percentage based on the absorbance of a control reaction mixture in which 100 μl of 0.1% BSA/0.2M triethanolamine-HCl buffer (pH 7.8) was used instead of the test sample or the positive control.

| Molecule | human plasmin-inhibiting activity [1] | effect on aPTT, anticoagulant activity [2] | aPTT (%) ([2]; final concentration 33 U/ml) | aPTT (%) ([2]; final concentration 167 U/ml) | human trypsin-inhibiting activity [3] |
| --- | --- | --- | --- | --- | --- |
| CC51: polypeptide defined by the amino acid sequence of formula 1, purified from culture supernatant of E. coli JE5505 (pM560) (CNLPIVRGPCRAFIQLWAFDAVKGKCVLFPYGGCQGNGNKFYSEKECREYC) | activity was found | have an effect to extend aPTT and anticoagulant activity | 172% | 256% | activity was found |
| B1 | activity was found | have an effect to extend aPTT and anticoagulant activity | 155% | 230% | activity was found |
| B2 | activity was found | have an effect to extend aPTT and anticoagulant activity | 157% | 239% | activity was found |
| B3 | activity was found |  |  |  | activity was found |
